The data set is described as follows: yeast display, Sf9 membrane polyspecificity reagent, FACS + sequencing; frameworks hold sequencing errors. Summed up: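 Sorting gates, low and high (top ~1%), were placed on anti-HA fluorescence to track expression and on streptavidin fluorescence to track reagent binding. A clone's polyreactivity label is taken from the gate it came out of. The reagent was 10% biotinylated, detergent-solubilized Sf9 membrane, applied for 1 hour at 4 °C to galactose-induced yeast display cells.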
As for “QVQLVESVGGLVQAGGSLRLSCAASGSIFGSYAMGWYRQAPGKERELVAAITYSGTSTYYADSVKGRFTISRDNAKNTVYLQMNSLKPEDTAVYYCYAVSRHRSKFDYWGQGTQVTVSS”, the “polyreactivity (PSR sort gate)” value is “high polyreactivity”.
For the sequence “QVQLVESVGGLVQAGGSLRLSCAASGSIFGVYAMGWYRQAPGKERELVATISRSGAITYYADSVKGRFTISRDNAKNTVYLQMNSLKPEDTAVYYCAADFFSREWGQGTQVTVSS”, the “polyreactivity (PSR sort gate)” value is reported as “low polyreactivity”.
The result for “QVQLVESVGGLVQAGGSLRLSCAASGSIFGYYAMGWYRPAPGKERELVATITWGGGSTYADSVKGRFTISRDNAKNTVYLQMNSLKPEDTAVYYCNAGYRYTSAQVTWEYDYWGQGTQVTVSS” reads “low polyreactivity”; that for “QVQLVESVGGLVQAGGSLRLSCAASGSIFNYYAMGWYRQAPGKERELVAAITTSGGNTYYADSVKGRFTISRDNPKNTVYLQMNSLKPEDTAVYYCAADYWASGGEYDYWGQGTQVTVSS”, “low polyreactivity”; that for “QVQLVESVGGLVQAGGSLRLSCAASGSIFQPYAMGWYRQAPGKERELVAAISIGDSTNYADSLKGRFTISRDNAKNTFYLQMNSLIPEDTAVYYCNTTGEYYDYWGQGTQVTVSS”, “low polyreactivity”.
With “QVQLVESVGGLVQAGGSLRLSCAASGSIFSAYAMGWYRQAPGKERELVASISWSGSSTYADSVKGRFTISRDNAKNTVYLQMNSLKPEDTAVYYCAAGYYSFRSAYDYWGQGTQVTVSS” the entry was “high polyreactivity”.
With “QVQLVESVGGLVQAGGSLRLSCAASGSIFSWYAMGWYRQAPGNARELVAAIRRGGSTYYADSVKGRFTISRDNATNTVYLQMNSLKPEDTAVYYCADRVYTAASRGRGDYWGQGTQVTVSS” the entry was “low polyreactivity”.
For the sequence “QVQLVESVGGLVQAGGSLRLSCAASGSIFVTYAMGWYRQAPGKERELVAVITWGGGSTYYADSVKGRFTISRDNAKNTVYLQMNSLIPEDTAVYYCAKDSYYYRRDVNVDYWGQGTQVTVSS”, the “polyreactivity (PSR sort gate)” value is recorded as “low polyreactivity”.
With “QVQLVESVGGLVQAGGSLRLSCAASGSIISFNAMGWYRQAPRKERELVASISRNGGSSYYADSVKGRFTISRDNAKNTVYLQMNSLKPEDTAVYYCAVKVRNRRYGYWGQGTQVTVSS” the entry was “high polyreactivity”; with “QVQLVESVGGLVQAGGSLRLSCAASGSILWLYAMGWYRQAPGKERELVAAISGSGRTNYADSEKGLFTISRDNAKNTVYLQMNSQKPEDTAVYYCARVHGTSESKYYYWGQGTQVTVSL”, “low polyreactivity”.
Regarding “QVQLVESVGGLVQAGGSLRLSCAASGSNFRGYAMGWYRQAPGKERELVAAISWSGVSTYYADSVKGRFTISRDNAKNTVYLQMNSLKPEDTAVYDCAAGYSSAYLRFGYWGQGTQVTVSS”, the “polyreactivity (PSR sort gate)” value is “low polyreactivity”.
With “QVQLVESVGGLVQAGGSLRLSCAASGSTFADYVMGWYRQAPGKERELVAAITSSGGSTYYADSVNGRFTISRDNAKNTVYLQMNSLKPEDTAVYYCAAQQSPSVDYWGQGTQVTVSS” the entry was “low polyreactivity”; with “QVQLVESVGGLVQAGGSLRLSCAASGSTFGFNAMGWYRQAPGKERELVAAIRRSDSSTYYADSVKGRFTISRDNAKNTVYLQMNSLKPEDTAVYYCAADVWVSWLLFKYEYWGQGTQVTVSS”, “low polyreactivity”; with “QVQLVESVGGLVQAGGSLRLSCAASGSTFGYYAMGWYRQAPGKERELVATITWSGGSTNYGDSVKGRFTISRDNEKNTVYLQMKSLKPEDTAVYYCAADLKYWYFGLAFIEVDYWGQGTQVTVSS”, “low polyreactivity”.
The result for “QVQLVESVGGLVQAGGSLRLSCAASGSTFIQYAMGRYRHAPGKERELVASNSRSAGSTYYADSVKGRFTISRDNAKNTVYLQMNSLKPEDTAVYYCAADSYYLGYYLGSYSWDYGYWGQGTQVTVSS” reads “high polyreactivity”; that for “QVQLVESVGGLVQAGGSLRLSCAASGSTFPVYVMGWYRQAPGKERELVAAITRIGGSTYYADSVKGRFTISRDNAKNTVYLQMNSLKPEDTAVYYCAAGGTARDDSWGQGTQVTVSS”, “low polyreactivity”; that for “QVQLVESVGGLVQAGGSLRLSCAASGSTFQGNAMGWYIQAPGKERELVAAISRSGGSTYADSVKGRFTISRDNAKNTVYLQMNSLKPEDTAVYYCAAYSGVGYLWFDYWGLGTQVTVSS”, “low polyreactivity”.
The result for “QVQLVESVGGLVQAGGSLRLSCAASGSTFRRYAMGWSRQAPGKERELVASISRSGGSTYYADSVKGRFTISRDNAKNTVYLQMNSLKPEDTAVYYCAKKPYKSAYDYSSAYDYWGQGTQVTVSS” reads “high polyreactivity”; that for “QVQLVESVGGLVQAGGSLRLSCAASGSTFSSNAMGWYRQAPGKERELVAAINRTGNTYYADSVKGRFTISRDNAKNTVYLQMNSLKPEDTAVYYCNTDLNLYRGGGYWGQGTQVTVSS”, “low polyreactivity”; that for “QVQLVESVGGLVQAGGSLRLSCAASGSTFYGYAMGWYRQAPGKETELVAAINWSGGSTFYADSVKGRFTISRDNAKNTVYLKMNSLKPEDTAVYYCNKAWRGSVSRRYYYWGQGTQVTVSS”, “high polyreactivity”.
Regarding “QVQLVESVGGLVQAGGSLRLSCAASGSTFYNNAMGWYRQAPGKERELVAAISSGGGTYYADSVKGRFTISRDNAMNTVYLQMNSLKPEDTAVYYCAADFANTTHWGRIKRNDYWGQGTQVTVSS”, the “polyreactivity (PSR sort gate)” value is reported as “low polyreactivity”.
On to “QVQLVESVGGLVQAGGSLRLSCAASGSTLFYNAMGWYRQAPGKERELVATISGGGVSTYYADSVKGRFTISRDNAKNSVYLQMNSLNPEDTAVYYCAAAGWSEGGYDYWGQGTQVTVSS”, for which the “polyreactivity (PSR sort gate)” value was “low polyreactivity”.
The result for “QVQLVESVGGLVQAGGSLRLSCAASGYIFDRNAMGWYRQAPGKERELVAAITKRGGITYYADSVKGRFTISRDNAKNTVYLQMNSLKPEDTAVYYCNALARSSRYDYWGQGTQVTVSS” reads “low polyreactivity”; that for “QVQLVESVGGLVQAGGSLRLSCAASGYTFYLYAMGWYRQAPGKERELVAAISYSSGGTYYADSVKGRFTISRDNAKNTVYLQMNSLKPEDTAVYYCAADAYDGEGTYPFEYWGQGTQVTVSS”, “low polyreactivity”.
With “QVQLVESVGGLVQAGGSLRLSCDASGSIFASYAMGGYRQAPGKERELVAAISTSGVSTHYADSVNGRFTISRENAKNTVYLQLNSLKQEDTAVYYCAATPGYKRYYWGQGTQVTVSS” the entry was “high polyreactivity”.
With “QVQLVESVGGLVQAGGSLRLSCGSSGSIFPYNAMGWYRQAPGKERELVATISSGGSTNYADSVKGRFTISRDNAKNTFYLQMNSLKPEDTAFYYCAADVIVFYYAPNYCGDIEYGYWGQGTQVTVSS” the entry was “low polyreactivity”; with “QVQLVESVGGLVQAGGSLRLSCSASGRTFAFYAMGWYRQAPGKVRELVASISSTGDRTYYADSVKGRFTISRDNAKNTVYLQMNSLIPEDTAVYYCAARWRYTYYYWGQGTQVTVSS”, “high polyreactivity”; with “QVQLVESVGGLVQAGGSLRLSFAASGSTFDVYAMGWYRQAPGKERELVAAIRSSGGSTFYADSVKGRFTISRDNAKNIVYLQMNSLNPEDTAVYYCAARSFVVSGYNKYYEYGYWGQGTQVTVSS”, “low polyreactivity”.
Regarding “QVQLVESVGGLVQAGGSLRLSSAASGFTFTRNTMGWYRQAPGKERELVAAITRGGSTNYADSVKGRFTISLDTAKNPVYLQMHSLKPEDTAVYYCAADAPFDSPYNYWGQGTQVTVSS”, the “polyreactivity (PSR sort gate)” value was “low polyreactivity”.
Consider “QVQLVESVGGLVQAGGSLRLSSAASGRIFVFNAMGWYRQAPGKERELVAAISRRGGSTYYADSVKGRFTISRDNAKNTVYLQMNSLNPEVTAVYYCAAVYPDYSSARYDYWGQGTQVTVSS”, for which the “polyreactivity (PSR sort gate)” value was “high polyreactivity”.
With “QVQLVESVGGLVQAGGSLRLTCAASGIILHDNTMGWYRQAPGKEREVVAAITSDGSTNYADSVKGRFTISRDNAKNTVYLQMNSLKPEDTAVYYCNTDDGPYTEFDYWGQGTQVTVSS”, the “polyreactivity (PSR sort gate)” value was “low polyreactivity”.
The result for “QVQLVESVGGLVQAGGSLRLTCAASGLILRRYAMGWYRQAPGKEELVAAITSDASTYYADSVKGRFTISRYNAKNTVYLQMNSLKPEDPAVYYCAADTYDNDYYYWGQGTQVTVSS” reads “high polyreactivity”; that for “QVQLVESVGGLVQAGGSLRLTCVASGRIFLTYAMGWYRQAPGKERELVAAISYSGASTYYADSVKGRFTISRDNAKNTVYLQMNSLKPEDTAVYYCATERVGTPRMNYWGQGTQVTVSS”, “high polyreactivity”.
The result for “QVQLVESVGGLVQARGSLRLICAASVRIIRGNAMGWYRQAPGKERELVAAISRRSGSTYYADSVKGRFTISRDNAKNTVYLQMISLKPEDTAVYYCAATCSLGDFRYDYWGQGTQVSVSS” reads “high polyreactivity”; that for “QVQLVESVGGLVQEGGSLRLICAASGSIFYTYAMGWYRQAPGKERELVAAIRSTGRTNYADSVKGRFTISRDNAKNTVYLHMNSLKPEDTGVYYCAAGTNYGKLRIRFDYWGQGTQVTVSS”, “low polyreactivity”; that for “QVQLVESVGRLVQAGGSLRLSCAASGSTITPNAMGWYRQAPGKERELVAAINWSGTSTYYADSVKGRFTISRDNEKNTVYLQMNSLKQEDTAVYSCAASYPDVDYDYWGHGTQVTVSS”, “high polyreactivity”.
The result for “QVQLVESVGVLVKAGGSLRLSCAASGRIYSSYALGWYRQAPGKEREFVAYISNSGGSTYYADSVKGRFTISRDNAKNTVYLQMNILKPEDTAVYYCAAAVYSYTYRYYYWGQGTQLTVSS” reads “high polyreactivity”; that for “QVQLVESVRGLFQAGGSLRLSCAASGFTFYIYDMGWYRQAPGTERELVAAITWSGGRTYYADSVKGRFTISRDNAKNTVYFQMNSLKPEDTAVYYCAASYPGLSFHKYEYWGQGTQLTVSS”, “high polyreactivity”.
Turning to “QVQLVESVVGLVQAGGSLRLSCAASGRIFFAYTMGWYRQAPGKERELVAAISSSGSTYYADSVKGRFTISRDNAKNTVYLQMNSLKPEDTAVYYLRVQRRAYRYDYWGQGTKVTVSS”, the “polyreactivity (PSR sort gate)” value is reported as “high polyreactivity”.
For “QVQLVESVVGLVQAGLSLRLSSAASGSIFSGYMGWYRHAPGKERELVATITSGGSTYADSVKGRFTISRDNAKNTVYLQMNSLKPEDTAVYYCAADVSFYTSKYDYWGLGTQVTVSS”, the “polyreactivity (PSR sort gate)” value is recorded as “low polyreactivity”.
With “QVQLVESVVGLVQAGVSLRLSCAASGFIVYANAMGWYRQAPGKERELVAAISRGTSTYYADSVKGRFTISRDNAKNTVYLQMTSLKPEDTAVYYCATYYYRPWGGYYWGQGTQVTVSS” the entry was “high polyreactivity”.

Values taken from the nanobody polyreactivity screen of Harvey et al. (2022).
